# Reference: the DeepSol protein solubility set
# Experiment: soluble on expression in E. coli; label from the status in PepcDB or PDB records
row,Sequence,soluble on expression in E. coli
1,MNEEVVMKFLHTSDWHVGRTLNGWSLLEEQEWAFQQIVDLAISEKVDGVIISGDLYDRAVPPVDAIKLFNKTLARLVLEEQIPVYAISGNHDGAERLHFGRDFFQHQGLHLSTRLEEAFEPIELENCQIFLLPFIDPIDARIYYKDDEGKEIQGIGDALTYILEDMEKAFDPDKAHVLVTHFAVSKKDDSDGQGLRELMLSETSNTVGGLTNVTSDLFKSFDYVALGHIHTRFASPTKRVQYSGSPVAFNVKEAKRKEEKGVYILELDASGDMSQTFHT,not soluble
2,MPKSLYNYHEFIHLSHDGRIPFEKIEVPKNAILLNNSADLDNYVYLIIDGYVALFLNDGKEQPKIYSIQGEGAFLNYFTLLDHSINRFRYKTLSKCFLYRYSKLDIEYFLSMFPENFGFQFFIMKNQTTHIYFKSLMASSPASEKLMLTFSNLARLHGIPTEDDTVILPPAIKTSHLLSYSNLSKSCFYKDLQYLKTTNQIEKQDNSWIIHNKELNLMLQNGETYI,not soluble
3,MKKVLILSTSTGYGHNQAANSLMELIKNDDTEILVHDFLKENRFFDRSIVNGYDLCASSLGTLYGLLYKISNIKFINNLVSFLFLPVANKLAKFIHSFNPDLIITTHPLAVSILSYLKKRQIIKVPVISVVTDFKCHYTYVSKIIDHYIVACDFTKENLASKGIPKERISPFGIPVKQDFYKEDYHNYVENIIQSPLNILLMGGGMGLDNISKVLKTLIKNENPLNLTIVCGNNAELKEDLCKEYGHIKGNKKLNILGYTTEIPKIMKSSDLIITKPGGLTTTESLLSHLPMIIPFIIPGQESENREFLSKSNCAITINHLEELNKVINDLNKDNNKLINMRKSILDVLSSYSPEGTIKLCTKMLNDSYNKRRYLEHHHHHH,soluble
4,MGSDKIHHHHHHMGFDVEALKAALEAHGRVIRVVVAEVKGSAPREVGAAMLVWDGGQSGTIGGGTLEFEAADAARRQDAPYRLSTHALGPDLGQCCGGAVTLLSEVYTEVNIAQLTGQVISRAVAPGPEPLAVSRILNHARAQGLAPAPQLIAGWMIEPVACATRPLWIWGAGHVGRALVEVLAPLPDYAITWVDVMRSKYPQEIPASVTALPAQEPGRLVPHAPTEAYHLILTYSHQLDLALCHRLLEHGFDFAGLIGSKTKWARFRARLAALGHRPEQIARLTCPIGMPELGKHPHAIAIGVAAELMALSQRLDLKKEHSA,not soluble
5,MSKRNTQQRRHNIIADLNAQGEVSVDSLAKQFDTSEVTIRKDLAALETSGLLLRRYGGAVALPSEITEAKVDQLSQQKLHIAKKAAMLIRDHNRIIIDSGQTTSALVSELANKKGLVVMTNALSIANEIHALENEPTLLMTGGTWDATSEAFQGQVAEQVLRSYDFDQLFIGADGIDIKRGTTTFNELIGLSRVMAEVAREVIVMVESAKITKKIPNLELNWQQIHTVITDDGLSEEMRIALTEQGVKLIIAKG,not soluble
6,MGSDKIHHHHHHARRNILRQTWMSKANSEIVANGRMKPLFLVGLTPGEYKMKKMVMQEAKLYGDIIVVDMNDNYEELTYKSLAILLYGVSKAPRYQMIGKIDEDVMFFPDKLTELYDQGFIDATPLRIYGLKMQSGANIFRDKTHRWYVPESSYSCSKFPEYVSGMLYMVTWEAAQQIIKSTKYRDFIQVEDVFLTGILAEDLGISVKNLP,not soluble
7,MSLDTQSDYVVVGTGSAGAVVASRLSTDPATTVVALEAGPRDKNRFIGVPAAFSKLFRSEIDWDYLTEPQPELDGREIYWPRGKVLGGSSSMNAMMWVRGFASDYDEWAARAGPRWSYADVLGYFRRIENVTAAWHFVSGDDSGVTGPLHISRQRSPRSVTAAWLAAARECGFAAARPNSPRPEGFCETVVTQRRGARFSTADAYLKPAMRRKNLRVLTGATATRVVIDGDRAVGVEYQSDGQTRIVYARREVVLCAGAVNSPQLLMLSGIGDRDHLAEHDIDTVYHAPEVGCNLLDHLVTVLGFDVEKDSLFAAEKPGQLISYLLRRRGMLTSNVGEAYGFVRSRPELKLPDLELIFAPAPFYDEALVPPAGHGVVFGPILVAPQSRGQITLRSADPHAKPVIEPRYLSDLGGVDRAAMMAGLRICARIAQARPLRDLLGSIARPRNSTELDEATLELALATCSHTLYHPMGTCRMGSDEASVVDPQLRVRGVDGLRVADASVMPSTVRGHTHAPSVLIGEKAADLIRSEGHHHHHH,soluble
8,MASTDTYNPTRDDFAAMLDESFAGGNLQESSVIKGKVVAIEKDMAVIDVGLKTEGRVPLREFAGPGRDNEIKVGDTVEVFLDRIENALGEAVLSRDKARREESWGKLEKAFQNNEKVFGVIFNQVKGGFTVDLDGAVAFLPRSQVDIRPIRDVAPLMNNSQPFQILKMDRRRGNIVVSRRTVLEETRAEQRQELVQNLEEGQVIDGVVKNITDYGAFVDLGGIDGLLHVTDIAWRRVNHPTEVLTIGQTVKVKIIKINHETHRISLGMKQLLDDPWQGIEAKYPLNARFTGRVTNITDYGAFVELEPGIEGLIHVSEMSWTKKNMHPGKIVSTSQEVEVQVLEVDSVKRRISLGLKQTMRNPWEVFVEKHPVGSTVEGEVKNKTEFGLFLGLDGDVDGMVHLSDLDWKLPGEQVIDNFKKGDMVKAVVLDVDVEKERISLGVKQLEGDPFAEPGDVKKGAVVTCEVLDVKESGIDVQIVGTDFNTFIKRSELARDRNDQRSDRFAVGEKVDARVIQFDKKARKVQVSIKALEVAEEKEAIAQYGSSDSGATLGDILGTALKQRDKLEHHHHHH,soluble
9,MVDQAQDTLRPNNRLSDMQATMEQTQAFENRVLERLNAGKTVRSFLITAVELLTEAVNLLVLQVFRKDDYAVKYAVEPLLDGDGPLGDLSVRLKLIYGLGVINRQEYEDAELLMALREELNHDGNEYAFTDDEILGPFGELHCVAALPPPPQFEPADSSLYAMQIQRYQQAVRSTMVLSLTELISKISLKKAFQK,soluble
10,MKEDEVNRCQIQNWYPRFKSLTIKTKFHKLPESFINYLIDDSGPFLLPHSVTNEDAMPNRVHNFEEEDDFQVPEEASDDEPLNRPSFPELEIEIRESIETLGGTIIPKLNWSSPKDAAWISPSQNLSCTCFNEIALLFRSSDSLTHDLFNAYDSCSDKVSSRPESFYLALRKWYPSLKPEMEFRCFVKSNELVGICQREVTTFYPVLLNEKDLLKGLIEEFFDDKIRFEFESENYTFDVYVTKERRVKLIDFNTWCGSTLPLMYTWEELEKIHGECDELELRIVESRLSVLPGLKTAVPYDYLDVSAGSGWAQVLKIVEEEFQKDDQSSDEVA,soluble
11,MGSDKIHHHHHHMSDIIQFPNSSKKLYKDIKRAEQDQNYDLMYEYIVQYERQFELTEEIAMMKCRMLYETGSFLELREETIVLLKTGIQQYDALMIYYVKSLIGLGQYFEAVEVIHQIIDEVKDHKTRMALHPLKEFAKSKLIEDEKRLTQSLTDFDTLSMREQTHLILKLIDNGHFQFQETVLYILKSNTYSYNLISLMIEYLRFANCTQELTIEKYGMDVTFVPANLNGLEHTTLKEKVIPNVMETLNDGALHIAEEAHHIMNNHSIMIYPIDIETLFETNKWINAYECYFKNMLGLKCELQSIDAFNFIQQLDLNNNS,not soluble
12,MGSDKIHHHHHHMSIARLREFVSDLTDIVGDDLHEAALLDRMRAPMTRLLAKDDWLPDAFAQPHPEFYQQYLLHCDPKQRFSVVSFVWGPGQKTPIHDHTVWGMIGMLRGSEHSTRFEVVGPDQPLRVAQTDVLEEGGIDVVSPSVGDVHQVSNVYDDRVSISIHVYGANIGRVRRHVYNGETGGVKEFVSGFSSSVVPNLWNAN,not soluble
13,MGSDKIHHHHHHMTFEQLLYAVELANHQTLQETADLLHISKSGLSQSISQLENELGVKLFKRTRYGSKLTAQGKELLPLIKQMLSQGVSLTKKAHNLGKSGQIETVRVAYANTMLKPFLNEYLAMYQDVPTKFNMEISQETVTQIIDGIRSHRINLGFIAINDSNKAEIHGLEFKPVHVGHLKLFLSPDNQLVKKQKINIEDLQKQRFALFNDPYNDRIFEHLQYLCGPLKTVIKTDDGWAMYTTIKKANAVALVRDWQTSYSSYEPLQKLPSLDISNLIDDRFYLGWLTNPKYTTSRYTHRYTQEFIKHVDAQIKEC,not soluble
14,GPGSMPVEREVITLAFGNYSSLVAAQWANGTSHYDAHHSTLYSECRSADVLGGGSSGNGRVRVPRLLLLDAPYASAFDDIDVWARKYKDDAKIGEEGDAAYNPSEASPSPVHRGDATEEKDHLFASVVKAVQRHVFEQHGLDDDDSHGGNDDAGGADDAQNDDGEDADAHLLDEDEEDDVSKNAGRRGSATIPHSRAQRQARLKRKLFDEHNTTIPWWQYITTGLGPNSVTSVKPLQHVDAAGDLPALHSFGYGLAYLRDGGRSSEVVDLNDALRRNLEAADQLQGIQCFTDGDGLFGGAAANVLEQLWEDAGPKTPVVQACSFARLPALVADPAYRAEVAFRERRMDEVALNQLLATLHLSRHTSAVYIPVPLSDWDVLFKGAATAASPTEAPPWLQDERATAQLLAAVIDTALYGLRDGSRASGVSSQGPQWYMDEWCRVVRPAPSLRVAAAMGALPQSVSASSELWEFLQANPLLPDAPQLDERMVRANDSAEDDASSGQARQQAKFFPLTHTMSTYSTAHTAGQVLGHVASLRGAGCLPATVYPAREAMLRYALPLRTSTYLPLVTEVSYPISDTFPTELLFADPAAMAKVPGGASGSGGSEGITSLRRVLQSVDVGAHVLSTYATAPMLHDISTKAQAALRNKMDRYCDAYVMEKDDWREALDEGLALFDDYNHAPLSDAQDGGGSDGDDY,not soluble
15,MQNIHQHNYVISLKTADARRQHIIQEFAKHNIPFQFFDACSIENNLYMDIEKHLPMLLNSKLSNSEKGCLMSHFLLWKKCVLDDIPYMTIFEDDIILSDESNEFISDYSWVNNRFYEQKEILIKFETFLMPVIRKFTKINEYKERAFNQLISRHFGTASYLISKEAAKYLILLYEKLPADELIAVDESIFNVLLNDKNLCVYQLEPAICVQELQFNKENSLLISQIEEDRYKNQKQNKPRKTLKQRIIKVCYNINRIFKKIKKTKLSDEKDINSDIVKFKLEHHHHHH,not soluble
16,MGSDKIHHHHHHMSIESILKNRSSTRAFLDKPVTKETLDLIFAHAQLSPSNCNVQPWQTCVVSGQTKDTLKQKFMQTLMSGASPNPDFNWLPQYQGVHRDRQFGSANALYSSIGVAREDKKARQMAMVRNWQFFDAPHAVFFTMDKYLDIMGAVDLGIYAQTLSLIMADHGISNCMQGALGQFPDPVREILNLPAERGILFGMSFGYADDSAAVNNTRTDREPIENAVAFFD,not soluble
17,MSLSTERTERVRPQRVEQNLPPLSWGGSGVQTAYWVQEAVQPGDSLADVLARSGMARDEIARITEKYGGEADLRHLRADQSVHVLVGGDGGAREVQFFTDEDGERNLVALEKKGGIWRRSASEADMKVLPTLRSVVVKTSARGSLARAEVPVEIRESLSGIFAGRFSLDGLKEGDAVRLMYDSLYFHGQQVAAGDILAAEVVKGGTRHQAFYYRSDKEGGGGGNYYDEDGKVLQEKGGFNIEPLVYTRISSPFGYRMHPILHTWRLHTGIDYAAPQGTPVRASADGVITFKGRKGGYGNAVMIRHANGVETLYAHLSAFSQAEGNVRGGEVIGFVGSTGRSTGPHLHYEARINGQPVNPVSVALPTPELTQADKAAFAAQKQKADALLARLRGIPVTVSQSDEGHHHHHH,soluble
18,MGSDKIHHHHHHMKIGFVGAGVGTLHAALLLTKRYPEVEITIFEKESRAGGRLASVDFETGGRIDQGPTIVLMPGKLQEQLREAGLEGVELERIDPLYDLHFDDGTIVTKQADVVDQTIAIERQFGEGRGFQEFMQQKAKDYDVSVSKFLERTYSRKRDLLHPDMLAPLVKMHAMETAHDHLKRFFKSKHLRMAYSFPTFYIGGNPYTTPSIYGLIPYREQEEGVWYVKGGYFSLAERMYEALVERGVTFKFNQPVDRVLIQQGQTKGLVAAGQEYVYDTVVLNGEFPLMEYLVEGKQPKKYVPSGGTLLLYFKIDGKVDLPVHRFLMPSDLKPLMTSIFKKNELPENPAVYLFNPSKIDDALTASGTSVVYALVPSPRGFDQANYEAHGFIDQILDKIEQHLPGFQSQVTEMKIRTPQDAQDFGLYEGGSFGIAPTIRQSAALKTQAKPYADIERLYAVGASVHPCGGVPIVMMGATLLVNRMEQEMRWKNGYSDERISSM,not soluble
